Publication PMC4861070 (ACS chemical biology, 2016)
Square brackets hold non-standard residues; d marks the D form. Ends that are not written are not given here. pY = N[C@@H](Cc1ccc(OP(=O)(O)O)cc1)C(=O)O; Lys(Me3) = C[N+](C)(C)CCCC[C@H](N)C(=O)O; pS = N[C@@H](COP(=O)(O)O)C(=O)O

T1: BRPF1 PWWP domain (aa 1064–1214) (UniProt P55201 1064-1214)
T1 sequence (looked up): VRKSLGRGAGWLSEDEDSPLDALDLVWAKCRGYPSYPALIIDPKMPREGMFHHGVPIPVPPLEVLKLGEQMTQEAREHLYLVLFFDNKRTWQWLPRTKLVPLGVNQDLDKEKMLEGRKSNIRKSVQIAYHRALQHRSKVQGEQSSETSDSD


Tests used:
[1] = molecular target: H3K9me3 peptide (Homo sapiens) (UniProt P68431); conditions: cited from earlier work
[2] = molecular target: H3K9me3S10ph peptide (Homo sapiens) (UniProt P68431); conditions: cited from earlier work
[3] = molecular target: Tudor domain of human PHF1 (aa 14–87) (human, UniProt O43189 14-87); assay: NMR titration
Tudor domain of human PHF1 (aa 14–87), sequence (O43189 14-87): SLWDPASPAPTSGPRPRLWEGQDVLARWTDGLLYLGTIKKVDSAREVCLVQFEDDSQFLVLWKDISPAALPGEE

[4] = molecular target: T1, BRPF1 PWWP domain (aa 1064–1214); assay: NMR titration

| Kd [3] | Kd [4] | Molecule | Kd [1] | Kd [2] |
| --- | --- | --- | --- | --- |
| – | – | ATRX ADD (from UniProt P46100) | 0.11 µM | 0.19 µM |
| 480 µM | 1800 µM | KSAPSTGGV[Lys(Me3)]KPHR[pY]RPGT (peptide, UniProt P84243 28-46, looked up) [histone H3.3K36me3Y41ph peptide (residues 27–45 of H3.3)] | – | – |
| 37 µM | 3900 µM | KSAPSTGGV[Lys(Me3)]KPHRYRPGT (peptide, UniProt P84243 28-46, looked up) [histone H3.3K36me3 peptide (residues 27–45 of H3.3)] | – | – |
| 260 µM | 2300 µM | KSAP[pS]TGGV[Lys(Me3)]KPHRYRPGT (peptide, UniProt P84243 28-46, looked up) [histone H3.3S31phK36me3 peptide (residues 27–45 of H3.3)] | – | – |
